According to US20260355338 (published 2026):
Positions count from the first letter of the chain named.

T1: human EpCAM-mFc (human)
T1 chain: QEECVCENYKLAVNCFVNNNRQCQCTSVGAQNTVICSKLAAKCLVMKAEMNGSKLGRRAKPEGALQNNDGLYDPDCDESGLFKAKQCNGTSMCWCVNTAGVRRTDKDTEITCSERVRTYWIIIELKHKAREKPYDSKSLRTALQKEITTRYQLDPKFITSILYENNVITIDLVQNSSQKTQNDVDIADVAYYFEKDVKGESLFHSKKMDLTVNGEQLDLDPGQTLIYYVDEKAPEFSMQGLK

B1: EP101-3014 (1565-Y) (antibody)
chain 1: QVQLVQSGAEVKKPGASVKVSCKASGYTFTNYYIHWVRQAPGQRLEYIGWIYPGNVYIQYNEKFKGRATLTADKSASTAYMELSSLRSEDTAVYYCARDGYWFAYWGQGTLVTVSS
chain 2: QGQSGQGSWCHSATDTILPCSNGGGSSGGAVGLLAPPGGLSGRSDNIGGSDIVLTQTPLSLSVTPGQPASISCRSSRSLLHSDGFTYLYWFLQKPGQSPQLLIYQTSNLASGVPDRFSSSGSGTDFTLKISRVEAEDVGVYYCAQNLELPNTFGQGTKLEIK
B2: EP02-3014 (1361-H) (antibody)
chain 1: B1 chain 1 with Y33H, Y101P
chain 2: QGQSGQGLSCTHSRYDMHCPHMGGGSSGGAVGLLAPPGGLSGRSDNIGGSDIVLTQTPLSLSVTPGQPASISCRSSRSLLHSDGFTYLYWFLQKPGQSPQLLIYQTSNLASGVPDRFSSSGSGTDFTLKISRVEAEDVGVYYCAQNLELPNTFGQGTKLEIK
B3: EP106-3014 (1361-H) (antibody)
chain 1: B1 chain 1 with Y33H, Y101P
chain 2: QGQSGQGFCSGYSPSVLPSCLMGGGSSGGAVGLLAPPGGLSGRSDNIGGSDIVLTQTPLSLSVTPGQPASISCRSSRSLLHSDGFTYLYWFLQKPGQSPQLLIYQTSNLASGVPDRFSSSGSGTDFTLKISRVEAEDVGVYYCAQNLELPNTFGQGTKLEIK
B4: EP11-3014 (1565-Y) (antibody)
chain 1: B1 chain 1
chain 2: QGQSGQGFICPTLYDRPHCMHTGGGSSGGAVGLLAPPGGLSGRSDNIGGSDIVLTQTPLSLSVTPGQPASISCRSSRSLLHSDGFTYLYWFLQKPGQSPQLLIYQTSNLASGVPDRFSSSGSGTDFTLKISRVEAEDVGVYYCAQNLELPNTFGQGTKLEIK
B5: EP04-3014 (1565-Y) (antibody)
chain 1: B1 chain 1
chain 2: QGQSGQGWCPRLFDRPSMGCPTGGGSSGGAVGLLAPPGGLSGRSDNIGGSDIVLTQTPLSLSVTPGQPASISCRSSRSLLHSDGFTYLYWFLQKPGQSPQLLIYQTSNLASGVPDRFSSSGSGTDFTLKISRVEAEDVGVYYCAQNLELPNTFGQGTKLEIK
B6: EP103-3014 (1565-Y) (antibody)
chain 1: B1 chain 1
chain 2: B2 chain 2 with L8M, T11V, H12V, S13D, Y15F, M17R, H18Q, M22L
B7: EP107-3-3014 (1361-H) (antibody)
chain 1: B1 chain 1 with Y33H, Y101P
chain 2: QGQSGQGSLPCSYMHPYCFYNSGGGSSGGAVGLLAPPGGLSGRSDNIGGSDIVLTQTPLSLSVTPGQPASISCRSSRSLLHSDGFTYLYWFLQKPGQSPQLLIYQTSNLASGVPDRFSSSGSGTDFTLKISRVEAEDVGVYYCAQNLELPNTFGQGTKLEIK
B8: EP01-3014 (1565-Y) (antibody)
chain 1: B1 chain 1
chain 2: QGQSGQGPLMTCSDYYTCKNNLGGGSSGGAVGLLAPPGGLSGRSDNIGGSDIVLTQTPLSLSVTPGQPASISCRSSRSLLHSDGFTYLYWFLQKPGQSPQLLIYQTSNLASGVPDRFSSSGSGTDFTLKISRVEAEDVGVYYCAQNLELPNTFGQGTKLEIK
B9: EP108-3014 (1361-H) (antibody)
chain 1: B1 chain 1 with Y33H, Y101P
chain 2: B7 chain 2 with S8L, L9T, P10R, S12T, Y13I, M14A, F19Y, S22Y
B10: EP102-3014 (1565-Y) (antibody)
chain 1: B1 chain 1
chain 2: QGQSGQGSPACSDRYYQTCVLNGGGSSGGAVGLLAPPGGLSGRSDNIGGSDIVLTQTPLSLSVTPGQPASISCRSSRSLLHSDGFTYLYWFLQKPGQSPQLLIYQTSNLASGVPDRFSSSGSGTDFTLKISRVEAEDVGVYYCAQNLELPNTFGQGTKLEIK
B11: EP03-3014 (1361-H) (antibody)
chain 1: B1 chain 1 with Y33H, Y101P
chain 2: B1 chain 2 with S8H, W9Y, A13R, L18T, P19H, S21N, N22A
B12: EP107-2-3014 (1361-H) (antibody)
chain 1: B1 chain 1 with Y33H, Y101P
chain 2: B7 chain 2 with L9H
B13: EP11-3014 (1361-H) (antibody)
chain 1: B1 chain 1 with Y33H, Y101P
chain 2: B4 chain 2
B14: EP109-3014 (1361-H) (antibody)
chain 1: B1 chain 1 with Y33H, Y101P
chain 2: QGQSGQGPNTCMSERRICSLTYGGGSSGGAVGLLAPPGGLSGRSDNIGGSDIVLTQTPLSLSVTPGQPASISCRSSRSLLHSDGFTYLYWFLQKPGQSPQLLIYQTSNLASGVPDRFSSSGSGTDFTLKISRVEAEDVGVYYCAQNLELPNTFGQGTKLEIK
B15: EP05-3014 (1565-Y) (antibody)
chain 1: B1 chain 1
chain 2: QGQSGQGWWPPCQGGAWCEQRIGGGSSGGAVGLLAPPGGLSGRSDNIGGSDIVLTQTPLSLSVTPGQPASISCRSSRSLLHSDGFTYLYWFLQKPGQSPQLLIYQTSNLASGVPDRFSSSGSGTDFTLKISRVEAEDVGVYYCAQNLELPNTFGQGTKLEIK
B16: EP104-3014 (1565-Y) (antibody)
chain 1: B1 chain 1
chain 2: QGQSGQGTTRCEHYWFTCPLSPGGGSSGGAVGLLAPPGGLSGRSDNIGGSDIVLTQTPLSLSVTPGQPASISCRSSRSLLHSDGFTYLYWFLQKPGQSPQLLIYQTSNLASGVPDRFSSSGSGTDFTLKISRVEAEDVGVYYCAQNLELPNTFGQGTKLEIK
B17: EP105-3014 (1361-H) (antibody)
chain 1: B1 chain 1 with Y33H, Y101P
chain 2: B3 chain 2 with F8D, S10T, S19A, L21R, M22V
B18: EP107-1-3014 (1361-H) (antibody)
chain 1: B1 chain 1 with Y33H, Y101P
chain 2: B7 chain 2 with L9R
B19: EP05-3014 (1361-H) (antibody)
chain 1: B1 chain 1 with Y33H, Y101P
chain 2: B15 chain 2
B20: EP110-3014 (1361-H) (antibody)
chain 1: B1 chain 1 with Y33H, Y101P
chain 2: QGQSGQGPRPHCAILRQCLAATGGGSSGGAVGLLAPPGGLSGRSDNIGGSDIVLTQTPLSLSVTPGQPASISCRSSRSLLHSDGFTYLYWFLQKPGQSPQLLIYQTSNLASGVPDRFSSSGSGTDFTLKISRVEAEDVGVYYCAQNLELPNTFGQGTKLEIK
B21: EP01-3014 (1361-H) (antibody)
chain 1: B1 chain 1 with Y33H, Y101P
chain 2: B8 chain 2
B22: EP02-3014 (1565-Y) (antibody)
chain 1: B1 chain 1
chain 2: B2 chain 2
B23: EP07-3014 (1361-H) (antibody)
chain 1: B1 chain 1 with Y33H, Y101P
chain 2: QGQSGQGHSGCPRLFDRCSAPAGGGSSGGAVGLLAPPGGLSGRSDNIGGSDIVLTQTPLSLSVTPGQPASISCRSSRSLLHSDGFTYLYWFLQKPGQSPQLLIYQTSNLASGVPDRFSSSGSGTDFTLKISRVEAEDVGVYYCAQNLELPNTFGQGTKLEIK
B24: EP03-3014 (1565-Y) (antibody)
chain 1: B1 chain 1
chain 2: B1 chain 2 with S8H, W9Y, A13R, L18T, P19H, S21N, N22A

Molecular target: T1, human EpCAM-mFc
Assay: ELISA

Kd	Binder
389 nM	B1
0.44 nM	B2
348 nM	B3
38 nM	B4
26.9 nM	B5
140 nM	B6
44 nM	B7
0.66 nM	B8
58 nM	B9
72.5 nM	B10
4 nM	B11
44 nM	B12
30.5 nM	B13
512 nM	B14
8.6 nM	B15
126 nM	B16
201 nM	B17
31 nM	B18
0.46 nM	B19
336 nM	B20
18.2 nM	B21
34.5 nM	B22
1.5 nM	B23
64.4 nM	B24
